This note sets out measurements from PMC3166620.

Test [1] addresses Biotinylated Ub-CHIP (monoubiquitinated CHIP) (UniProt P0CG48). The experiment in a line: BLI.
The target of the next test is Biotinylated CHIP (UniProt Q9UNE7). In words: BLI.
UniProt Q9UNE7, sequence (Q9UNE7 whole entry): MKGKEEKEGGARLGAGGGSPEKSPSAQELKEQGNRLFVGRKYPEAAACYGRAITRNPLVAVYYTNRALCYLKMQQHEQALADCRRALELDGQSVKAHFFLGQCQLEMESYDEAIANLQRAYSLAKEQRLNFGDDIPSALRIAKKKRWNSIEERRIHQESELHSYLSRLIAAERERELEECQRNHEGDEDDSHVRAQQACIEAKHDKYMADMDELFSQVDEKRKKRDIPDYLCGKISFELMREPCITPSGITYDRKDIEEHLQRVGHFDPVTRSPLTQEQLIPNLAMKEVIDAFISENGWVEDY

The term Kd denotes the concentration at which binding is half-saturated. As for “ataxin-3, normal (Q22), recombinant (from UniProt P54252 1-361) (enzyme)”, the figures for the Kd (in test [1]; with Biotinylated CHIP) were 120 nM and 2200 nM, respectively.

Regarding “ataxin-3, polyglutamine-expanded (Q80), recombinant (from UniProt P54252 1-361) (enzyme)”, the Kd in test [1] turned out to be 750 nM; in the test with Biotinylated CHIP, 390 nM.
